{"source": "the supplement of paper PMC10567573", "parents": {"B1": {"name": "CLK3 (parent)", "chain": "FGEDYYGPSRSRHRRRSRERGPYR"}, "B2": {"name": "SCNN1D (parent)", "chain": "FLGHHSFSVRPGTEATISIREDEV"}}}
{"variants_of": "B1", "assay": "protein stability index of a GFP-peptide fusion (GPS, HEK-293T) (PSI 1-6); higher = more stable", "conditions": "c terminus: a fixed tail appended"}
{"variant": "FGEDYYGPSRSRHRRRSNERGPYR", "protein stability index": 1.96}
{"variant": "FGEDYYGPSRSRHRRRSWERGPYR", "protein stability index": 3.29}
{"variant": "FGEDYYGPSRSRHRRRSEERGPYR", "protein stability index": 1.8}
{"variant": "FGEDYYGPSRSRHRRRSYERGPYR", "protein stability index": 2.36}
{"variant": "FGEDYYGPSRSRHRRRSAERGPYR", "protein stability index": 2.06}
{"variant": "FGEDYYGPSRSRHRRRSGERGPYR", "protein stability index": 2.54}
{"variant": "FGEDYYGPSRSRHRRRSLERGPYR", "protein stability index": 2.22}
{"variant": "FGEDYYGPSRSRHRRRSKERGPYR", "protein stability index": 2.46}
{"variant": "FGEDYYGPSRSRHRRRSPERGPYR", "protein stability index": 2.37}
{"variant": "FGEDYYGPSRSRHRRRSQERGPYR", "protein stability index": 2.45}
{"variant": "FGEDYYGPSRSRHRRRSSERGPYR", "protein stability index": 1.83}
{"variant": "FGEDYYGPSRSRHRRRSIERGPYR", "protein stability index": 2.23}
{"variant": "FGEDYYGPSRSRHRRRSVERGPYR", "protein stability index": 2.29}
{"variant": "FGEDYYGPSRSRHRRRSCERGPYR", "protein stability index": 2.21}
{"variant": "FGEDYYGPSRSRHRRRSRLRGPYR", "protein stability index": 3.42}
{"variant": "FGEDYYGPSRSRHRRRSRWRGPYR", "protein stability index": 4.71}
{"variant": "FGEDYYGPSRSRHRRRSRNRGPYR", "protein stability index": 3.95}
{"variant": "FGEDYYGPSRSRHRRRSRTRGPYR", "protein stability index": 3.81}
{"variant": "FGEDYYGPSRSRHRRRSRFRGPYR", "protein stability index": 4.17}
{"variant": "FGEDYYGPSRSRHRRRSRMRGPYR", "protein stability index": 4.15}
{"variant": "FGEDYYGPSRSRHRRRSRYRGPYR", "protein stability index": 3.94}
{"variant": "FGEDYYGPSRSRHRRRSRHRGPYR", "protein stability index": 4.09}
{"variant": "FGEDYYGPSRSRHRRRSRQRGPYR", "protein stability index": 3.2}
{"variant": "FGEDYYGPSRSRHRRRSRSRGPYR", "protein stability index": 3.65}
{"variant": "FGEDYYGPSRSRHRRRSRVRGPYR", "protein stability index": 4.11}
{"variant": "FGEDYYGPSRSRHRRRSRARGPYR", "protein stability index": 3.59}
{"variant": "FGEDYYGPSRSRHRRRSRRRGPYR", "protein stability index": 4.55}
{"variant": "FGEDYYGPSRSRHRRRSRIRGPYR", "protein stability index": 3.96}
{"variant": "FGEDYYGPSRSRHRRRSRDRGPYR", "protein stability index": 3.87}
{"variant": "FGEDYYGPSRSRHRRRSRKRGPYR", "protein stability index": 4.05}
{"variant": "FGEDYYGPSRSRHRRRSRPRGPYR", "protein stability index": 4.39}
{"variant": "FGEDYYGPSRSRHRRRSRGRGPYR", "protein stability index": 4.06}
{"variant": "FGEDYYGPSRSRHRRRSRCRGPYR", "protein stability index": 4.35}
{"variant": "FGEDYYGPSRSRHRRRSRERGPTR", "protein stability index": 2.27}
{"variant": "FGEDYYGPSRSRHRRRSRERGPSR", "protein stability index": 2.62}
{"variant": "FGEDYYGPSRSRHRRRSRERGPGR", "protein stability index": 2.43}
{"variant": "FGEDYYGPSRSRHRRRSRERGPPR", "protein stability index": 2.61}
{"variant": "FGEDYYGPSRSRHRRRSRERGPMR", "protein stability index": 2.48}
{"variant": "FGEDYYGPSRSRHRRRSRERGPAR", "protein stability index": 2.19}
{"variant": "FGEDYYGPSRSRHRRRSRERGPCR", "protein stability index": 2.47}
{"variant": "FGEDYYGPSRSRHRRRSRERGPDR", "protein stability index": 2.89}
{"variant": "FGEDYYGPSRSRHRRRSRERGPER", "protein stability index": 2.35}
{"variant": "FGEDYYGPSRSRHRRRSRERGPIR", "protein stability index": 2.31}
{"variant": "FGEDYYGPSRSRHRRRSRERGPVR", "protein stability index": 3.15}
{"variant": "FGEDYYGPSRSRHRRRSRERGPQR", "protein stability index": 3.46}
{"variant": "FGEDYYGPSRSRHRRRSRERGPFR", "protein stability index": 1.65}
{"variant": "FGEDYYGPSRSRHRRRSRERGPLR", "protein stability index": 2.16}
{"variant": "FGEDYYGPSRSRHRRRSRERGPRR", "protein stability index": 2.11}
{"variant": "FGEDYYGPSRSRHRRRSRERGPKR", "protein stability index": 2.3}
{"variant": "FGEDYYGPSRSRHRRRSRERGPHR", "protein stability index": 2.38}
{"variant": "FGEDYYGPSRSRHRRRSRERGPNR", "protein stability index": 2.67}
{"variant": "FGEDYYGPSRSRHRRRSRERGPWR", "protein stability index": 2.46}
{"variant": "FGEDYYGPSRSRHRRRSRERGWYR", "protein stability index": 3.26}
{"variant": "FGEDYYGPSRSRHRRRSRERGRYR", "protein stability index": 1.97}
{"variant": "FGEDYYGPSRSRHRRRSRERGGYR", "protein stability index": 2.54}
{"variant": "FGEDYYGPSRSRHRRRSRERGCYR", "protein stability index": 2.8}
{"variant": "FGEDYYGPSRSRHRRRSRERGFYR", "protein stability index": 2.62}
{"variant": "FGEDYYGPSRSRHRRRSRERGYYR", "protein stability index": 2.39}
{"variant": "FGEDYYGPSRSRHRRRSRERGDYR", "protein stability index": 2.8}
{"variant": "FGEDYYGPSRSRHRRRSRERGEYR", "protein stability index": 2.05}
{"variant": "FGEDYYGPSRSRHRRRSRERGIYR", "protein stability index": 2.2}
{"variant": "FGEDYYGPSRSRHRRRSRERGKYR", "protein stability index": 2.19}
{"variant": "FGEDYYGPSRSRHRRRSRERGMYR", "protein stability index": 2.54}
{"variant": "FGEDYYGPSRSRHRRRSRERGTYR", "protein stability index": 2.82}
{"variant": "FGEDYYGPSRSRHRRRSRERGAYR", "protein stability index": 2.82}
{"variant": "FGEDYYGPSRSRHRRRSRERGLYR", "protein stability index": 2.37}
{"variant": "FGEDYYGPSRSRHRRRSRERGSYR", "protein stability index": 2.21}
{"variant": "FGEDYYGPSRSRHRRRSRERGQYR", "protein stability index": 2.65}
{"variant": "FGEDYYGPSRSRHRRRSRERGVYR", "protein stability index": 3.03}
{"variant": "FGEDYYGPSRSRHRRRSRERGHYR", "protein stability index": 2.65}
{"variant": "FGEDYYGPSRSRHRRRSRERGNYR", "protein stability index": 2.54}
{"variants_of": "B2", "assay": "protein stability index of a GFP-peptide fusion (GPS, HEK-293T) (PSI 1-6); higher = more stable", "conditions": "c terminus: a fixed tail appended"}
{"variant": "FEGHHSFSVRPGTEATISIREDEV", "protein stability index": 4.5}
{"variant": "FDGHHSFSVRPGTEATISIREDEV", "protein stability index": 5.03}
{"variant": "FAGHHSFSVRPGTEATISIREDEV", "protein stability index": 1.66}
{"variant": "FCGHHSFSVRPGTEATISIREDEV", "protein stability index": 2.18}
{"variant": "ELGHHSFSVRPGTEATISIREDEV", "protein stability index": 5.02}
{"variant": "MLGHHSFSVRPGTEATISIREDEV", "protein stability index": 4.68}
{"variant": "VLGHHSFSVRPGTEATISIREDEV", "protein stability index": 4.15}
{"variant": "ALGHHSFSVRPGTEATISIREDEV", "protein stability index": 3.92}
{"variant": "HLGHHSFSVRPGTEATISIREDEV", "protein stability index": 4.49}
{"variant": "ILGHHSFSVRPGTEATISIREDEV", "protein stability index": 4.02}
{"variant": "QLGHHSFSVRPGTEATISIREDEV", "protein stability index": 4.33}
{"variant": "SLGHHSFSVRPGTEATISIREDEV", "protein stability index": 4.38}
{"variant": "KLGHHSFSVRPGTEATISIREDEV", "protein stability index": 4.3}
{"variant": "NLGHHSFSVRPGTEATISIREDEV", "protein stability index": 4.38}
{"variant": "WLGHHSFSVRPGTEATISIREDEV", "protein stability index": 2.77}
{"variant": "TLGHHSFSVRPGTEATISIREDEV", "protein stability index": 4.8}
{"variant": "CLGHHSFSVRPGTEATISIREDEV", "protein stability index": 3.57}
{"variant": "LLGHHSFSVRPGTEATISIREDEV", "protein stability index": 3.99}
{"variant": "DLGHHSFSVRPGTEATISIREDEV", "protein stability index": 4.78}
{"variant": "PLGHHSFSVRPGTEATISIREDEV", "protein stability index": 4.64}
{"variant": "YLGHHSFSVRPGTEATISIREDEV", "protein stability index": 1.97}
{"variant": "GLGHHSFSVRPGTEATISIREDEV", "protein stability index": 4.59}
{"variant": "RLGHHSFSVRPGTEATISIREDEV", "protein stability index": 4.42}
